Here are results for two molecules from publication PMC2733745 (The Journal of Cell Biology, 2009).

The target in assay [1] is FN7–10 (fibronectin type III domains 7–10) (human, UniProt P02751-1 1173-1540). Kind of assay: SEC.
For assay [2], the target named is full-length WT αVβ3 stably expressed on K562 cells (human, UniProt P06756;P05106). The experiment in a line: flow cytometry on cells.
For a further assay, the target named is 1TM-αVβ3 (human, UniProt P06756;P05106). Kind of assay: SEC.

B1: 1TM-αVβ3 (complex)
chain 1: FNLDVDSPAEYSGPEGSYFGFAVDFFVPSASSRMFLLVGAPKANTTQPGIVEGGQVLKCDWSSTRRCQPIEFDATGNRDYAKDDPLEFKSHQWFGASVRSKQDKILACAPLYHWRTEMKQEREPVGTCFLQDGTKTVEYAPCRSQDIDADGQGFCQGGFSIDFTKADRVLLGGPGSFYWQGQLISDQVAEIVSKYDPNVYSIKYNNQLATRTAQAIFDDSYLGYSVAVGDFNGDGIDDFVSGVPRAARTLGMVYIYDGKNMSSLYNFTGEQMAAYFGFSVAATDINGDDYADVFIGAPLFMDRGSDGKLQEVGQVSVSLQRASGDFQTTKLNGFEVFARFGSAIAPLGDLDQDGFNDIAIAAPYGGEDKKGIVYIFNGRSTGLNAVPSQILEGQWAARSMPPSFGYSMKGATDIDKNGYPDLIVGAFGVDRAILYRARPVITVNAGLEVYPSILNQDNKTCSLPGTALKVSCFNVRFCLKADGKGVLPRKLNFQVELLLDKLKQKGAIRRALFLYSRSPSHSKNMTISRGGLMQCEELIAYLRDESEFRDKLTPITIFMEYRLDYRTAADTTGLQPILNQFTPANISRQAHILLDCGEDNVCKPKLEVSVDSDQKKIYIGDDNPLTLIVKAQNQGEGAYEAELIVSIPLQADFIGVVRNNEALARLSCAFKTENQTRQVVCDLGNPMKAGTQLLAGLRFSVHQQSEMDTSVKFDLQIQSSNLFDKVSPVVSHKVDLAVLAAVEIRGVSSPDHVFLPIPNWEHKENPETEEDVGPVVQHIYELRNNGPSSFSKAMLHLQWPYKYNNNTLLYILHYDIDGPMNCTSDMEINPLRIKISSLQTTEKNDTVAGQGERDHLITKRDLALSEGDIHTLGCGVAQCLKIVCQVGRLDRGKSAILYVKSLLWTETFMNKENQNHSYSLKSSASFNVIEFPYKNLPIEDITNSTLVTTNVTWGIQPAPMPVPVWVI
chain 2: GPNICTTRGVSSCQQCLAVSPMCAWCSDEALPLGSPRCDLKENLLKDNCAPESIEFPVSEARVLEDRPLSDKGSGDSSQVTQVSPQRIALRLRPDDSKNFSIQVRQVEDYPVDIYYLMDLSYSMKDDLWSIQNLGTKLATQMRKLTSNLRIGFGAFVDKPVSPYMYISPPEALENPCYDMKTTCLPMFGYKHVLTLTDQVTRFNEEVKKQSVSRNRDAPEGGFDAIMQATVCDEKIGWRNDASHLLVFTTDAKTHIALDGRLAGIVQPNDGQCHVGSDNHYSASTTMDYPSLGLMTEKLSQKNINLIFAVTENVVNLYQNYSELIPGTTVGVLSMDSSNVLQLIVDAYGKIRSKVELEVRDLPEELSLSFNATCLNNEVIPGLKSCMGLKIGDTVSFSIEAKVRGCPQEKEKSFTIKPVGFKDSLIVQVTFDCDCACQAQAEPNSHRCNNGNGTFECGVCRCGPGWLGSQCECSEEDYRPSQQDECSPREGQPVCSQRGECLCGQCVCHSSDFGKITGKYCECDDFSCVRYKGEMCSGHGQCSCGDCLCDSDWTGYYCNCTTRTDTCMSSNGLLCSGRGKCECGSCVCIQPGSYGDTCEKCPTCPDACTFKKECVECKKFDRGALHDENTCNRYCRDEIESVKELKDTGKDAVNCTYKNEDDCVVRFQYYEDSSGKSILYVVEEPECPKGPDILVV
B1: the “stoichiometry N” value in assay [1] was ~1 integrin/FN molar ratio.

B2: Fab fragment of the anti–αV propeller mAb 17E6 (Fab, V domains shown)
VH: QVQLQQSGAELAEPGASVKMSCKASGYTFSSFWMHWVKQRPGQGLEWIGYINPRSGYTECNEIFRDKATMTADTSSSTAYMQLSGLTSEDSAVYYCASFLGRGAMDYWGQGTSVTVSS
VL: DIQMTQTTSSLSASLGDRVIISCRASQDISNYLSWYQQKPDGTVKLLIFYTSKLHSGVPSRFSGSGSGTDYSLTISNLDQEDIATYFCQQGNTFPYTFGGGTKVEMR
For B2, the binding result (in assay [2]; with 1TM-αVβ3) was “binds” throughout.
